Measurements as given in patent CN112125972A (SINOCELLTECH LTD, dated 2020).

How the values were obtained:
Assay in all cases: indirect ELISA, VLP coated at 2 μg/mL, antibody at 10 ng/mL
HPV18 VLP = molecular target: T1, HPV18 VLP (Human papillomavirus type 18, UniProt P06794 62-568)
T1 construct: also called HPV18完整VLP蛋白
T1 sequence: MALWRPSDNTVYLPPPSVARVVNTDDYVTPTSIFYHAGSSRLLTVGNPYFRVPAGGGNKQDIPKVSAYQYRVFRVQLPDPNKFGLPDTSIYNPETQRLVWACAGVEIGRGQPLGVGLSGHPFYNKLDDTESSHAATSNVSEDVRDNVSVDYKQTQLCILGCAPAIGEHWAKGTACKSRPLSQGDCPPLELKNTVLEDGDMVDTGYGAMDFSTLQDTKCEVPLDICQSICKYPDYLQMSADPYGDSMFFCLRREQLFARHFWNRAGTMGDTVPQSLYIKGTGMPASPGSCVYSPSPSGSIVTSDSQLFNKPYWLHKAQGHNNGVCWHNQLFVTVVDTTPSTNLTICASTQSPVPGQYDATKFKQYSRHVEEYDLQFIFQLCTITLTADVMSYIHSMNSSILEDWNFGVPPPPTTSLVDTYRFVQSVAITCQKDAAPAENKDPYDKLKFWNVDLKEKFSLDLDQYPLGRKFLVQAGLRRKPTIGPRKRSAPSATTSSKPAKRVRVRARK

HPV52 VLP = molecular target: T2, HPV52 VLP (Human papillomavirus type 52, UniProt Q05138 27-529)
T2 construct: also called HPV52完整VLP蛋白
T2 sequence: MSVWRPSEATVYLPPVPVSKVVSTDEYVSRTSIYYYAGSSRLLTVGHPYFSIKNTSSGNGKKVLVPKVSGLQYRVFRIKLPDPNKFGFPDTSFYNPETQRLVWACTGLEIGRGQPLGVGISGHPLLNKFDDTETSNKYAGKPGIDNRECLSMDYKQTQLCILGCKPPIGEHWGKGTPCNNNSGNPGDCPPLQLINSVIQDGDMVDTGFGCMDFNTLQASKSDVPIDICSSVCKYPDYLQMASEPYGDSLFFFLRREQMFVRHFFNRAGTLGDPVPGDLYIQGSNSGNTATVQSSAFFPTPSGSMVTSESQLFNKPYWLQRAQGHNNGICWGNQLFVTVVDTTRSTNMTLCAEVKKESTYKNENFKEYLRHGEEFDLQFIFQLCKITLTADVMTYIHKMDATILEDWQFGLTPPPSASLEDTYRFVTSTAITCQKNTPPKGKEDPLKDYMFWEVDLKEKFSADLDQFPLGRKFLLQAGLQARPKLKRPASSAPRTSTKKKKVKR

HPV16 L1 VLP蛋白 = molecular target: T3, HPV16 L1 VLP蛋白 (Human papillomavirus type 16)
T3 construct: Intact virus-like particle of L1; also called HPV16 VLP; HPV16 VLP蛋白

HPV45 VLP = molecular target: T4, HPV45 VLP (Human papillomavirus type 45, UniProt P36741 27-539)
T4 construct: also called HPV45完整VLP蛋白
T4 sequence: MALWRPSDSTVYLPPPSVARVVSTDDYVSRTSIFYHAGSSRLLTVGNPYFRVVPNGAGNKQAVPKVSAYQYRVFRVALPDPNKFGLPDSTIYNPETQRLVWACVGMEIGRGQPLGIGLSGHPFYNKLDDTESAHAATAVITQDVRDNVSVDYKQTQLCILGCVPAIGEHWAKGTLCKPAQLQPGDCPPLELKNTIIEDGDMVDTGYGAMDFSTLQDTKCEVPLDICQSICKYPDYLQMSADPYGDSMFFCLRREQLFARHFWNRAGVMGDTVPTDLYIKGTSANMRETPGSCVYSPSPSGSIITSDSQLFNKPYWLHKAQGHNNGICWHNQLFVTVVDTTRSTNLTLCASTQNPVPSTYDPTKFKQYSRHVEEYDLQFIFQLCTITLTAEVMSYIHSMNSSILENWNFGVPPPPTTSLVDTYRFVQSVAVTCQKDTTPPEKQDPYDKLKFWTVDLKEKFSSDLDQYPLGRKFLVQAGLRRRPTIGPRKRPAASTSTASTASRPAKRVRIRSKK

HPV6 VLP = molecular target: T5, HPV6 VLP (Human papillomavirus type 6, UniProt P69899 1-500)
T5 construct: also called HPV6完整VLP蛋白
T5 sequence: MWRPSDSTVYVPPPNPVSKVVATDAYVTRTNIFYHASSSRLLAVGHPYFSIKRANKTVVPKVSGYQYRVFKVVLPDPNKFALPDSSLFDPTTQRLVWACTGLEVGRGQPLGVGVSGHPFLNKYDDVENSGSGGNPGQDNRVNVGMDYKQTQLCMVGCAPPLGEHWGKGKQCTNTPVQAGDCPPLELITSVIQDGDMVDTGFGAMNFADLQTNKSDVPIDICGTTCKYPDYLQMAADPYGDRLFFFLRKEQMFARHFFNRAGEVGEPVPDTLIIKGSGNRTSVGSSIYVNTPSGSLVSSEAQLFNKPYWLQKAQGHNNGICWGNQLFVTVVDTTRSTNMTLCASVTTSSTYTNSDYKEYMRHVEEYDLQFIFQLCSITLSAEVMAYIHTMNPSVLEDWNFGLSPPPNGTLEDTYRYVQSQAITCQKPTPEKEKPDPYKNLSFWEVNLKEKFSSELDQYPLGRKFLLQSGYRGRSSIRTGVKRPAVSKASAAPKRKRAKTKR

HPV51 VLP = molecular target: T6, HPV51 VLP (Human papillomavirus type 51, UniProt P26536 1-504)
T6 construct: also called HPV51完整VLP蛋白
T6 sequence: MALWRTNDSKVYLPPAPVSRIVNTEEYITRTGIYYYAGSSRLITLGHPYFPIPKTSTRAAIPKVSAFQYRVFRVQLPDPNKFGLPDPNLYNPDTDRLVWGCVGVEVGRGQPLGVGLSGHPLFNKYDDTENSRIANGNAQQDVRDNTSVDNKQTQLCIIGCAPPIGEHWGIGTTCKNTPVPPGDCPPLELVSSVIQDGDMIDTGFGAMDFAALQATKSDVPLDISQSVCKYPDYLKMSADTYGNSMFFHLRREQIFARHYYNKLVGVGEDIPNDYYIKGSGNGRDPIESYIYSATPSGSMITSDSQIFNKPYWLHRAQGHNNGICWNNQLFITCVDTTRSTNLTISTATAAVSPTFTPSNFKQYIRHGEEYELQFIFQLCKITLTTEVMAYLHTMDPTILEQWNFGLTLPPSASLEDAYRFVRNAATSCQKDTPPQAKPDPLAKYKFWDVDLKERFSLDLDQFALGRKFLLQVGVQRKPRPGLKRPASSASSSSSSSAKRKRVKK

B1: HPV 16 R001 (antibody, V domains shown)
VH: QSVKESEGRLVTPGTPLTLTCTASGFTMSRYHMTWVRQAPGKGLEWIGIIYARNSDTYYANWAKGRFTISKTSTTVDLKITSPTIEDTATYFCARVDSDSSGAFDRLDLWGQGTLVTVSS
VL: DPMLTQTAASVEVAVGGTVTIKCQASQSIGGYLSWYQQKPGQRPKLLIYRASTLASGVPSRFKGSGSGTEYTLTFSGVECADAAAYYCQQGYTSSDINNAFGGGTEVVVK
notes: An HRP-labelled form served as detection antibody in the sandwich ELISA; also called HPV16.001; 单克隆抗体HPV 16 R001
For B1, the OD450-blank (HPV18 VLP) was 0 OD450, the OD450-blank (HPV52 VLP) was 0.003 OD450 and the OD450-blank (HPV16 L1 VLP蛋白) was 2.53 OD450. The OD450-blank (HPV45 VLP) was 0.002 OD450, the OD450-blank (HPV6 VLP) was 0.004 OD450 and the OD450-blank (HPV51 VLP) was 0.001 OD450.
